Experimental data: paper PMC11154707, “Polymer-based antibody mimetics (iBodies) target human PD-L1 and function as a potent immune checkpoint blocker” (The Journal of Biological Chemistry, 2024)

What was measured:
[1] = target: T1, PD-1/PD-L1 engagement (hPD-L1-overexpressing Raji B cells, hPD-1-overexpressing Jurkat T cells) (Homo sapiens, UniProt Q9NZQ7); test: IL-2 production in PD-L1 Raji B / PD-1 Jurkat T cell co-culture with SEE; assay type: cell-based; conditions: 25 pg/ml SEE, 24 h co-culture, IL-2 ELISA of supernatants; read-out: EC50 of restored T cell activation (IL-2)
T1 construct: expressed in transfected cells; host or cells: Raji B cells (PD-L1) co-cultured with Jurkat T cells (PD-1)
Description: (§1) B, PD-L1-overexpressing Raji B cells were pre-incubated with a dilution series of α-PD-L1 compounds in the presence of 25 pg/ml SEE for 1 h and then co-cultured in a 1:1 ratio with PD-1-overexpressing Jurkat T cells for 24 h. Supernatants were collected, and IL-2 levels were measured using ELISA. EC50 was calculated using a 4-parameter logistic function in GraphPad Prism 9.0.0. Data are representative of five independent experiments performed in duplicates, with error bars indicating the standard deviation. C, PD-L1-overexpressing Raji B cells were pre-incubated with 2 nM of α-PD-L1 compounds in the presence of 25 pg/ml SEE for 1 h and then co-cultured in a 1:1 ratio with PD-1-overexpressing Jurkat T cells for 18 h. Cells were collected and stained with BV421-conjugated anti-human CD69 antibody. […] Cells were measured with a BD LSRFortessa instrument (Fig. S9). Data are represented as median fluorescence intensity (MFI). Error bars indicate the standard deviation. D, histograms indicate the percentage of CD69-expressing cells (gated above the basal CD69 expression in the absence of SEE; no SEE). Data were analyzed with FlowJo 10.4.1 and are representative of three independent experiments performed in duplicates. MFI comparison was carried out using a one-way ANOVA test in GraphPad Prism 9.0.0. ∗∗ indicates p-value < 0.01; ns = not significant.

[2] = target: T1, PD-1/PD-L1 engagement (hPD-L1-overexpressing Raji B cells, hPD-1-overexpressing Jurkat T cells); test: Membrane CD69 expression in PD-L1 Raji B / PD-1 Jurkat T cell co-culture with SEE; assay type: cell-based; conditions: 2 nM compound, 18 h co-culture; for overall expression of CD69 compared with non-treated samples: MFI, one-way ANOVA; for % CD69 (percentage of CD69-expressing cells): gated above basal CD69 without SEE
Description: as §1
Co-culture for analysis of CD69 expression was set up similarly as above, except that cells were incubated for 18 h in the presence of 2 nM of all compounds. Next, cells were collected by centrifugation (600g, 6 min) and washed once with 200 μl PBS. Corresponding wells were stained with 100 μl of 1:100 BV421-anti-human CD69 antibody (BD Biosciences, cat# 562884) or 100 ng/well isotype control antibody (BD Biosciences cat# 562438) in PBS for 30 min at 4 °C. Afterwards, cells were washed three times with 200 μl PBS followed by viability staining using 100 μl of 1:1000 Zombie NIR fixable viability kit (Biolegend, cat# 423106) in PBS. Finally, the measurement was carried out on an LSRFortessa Flow Cytometer (Becton, Dickinson and Company) and analyzed with FlowJo 10.4.1. The cell population was gated based on their forward and side scatter properties, followed by gating for single and viable cells. The Gating strategy is explained in the Fig. S9.

[3] = target: PD-L1; conditions: read-out: published Kd; cited from earlier work
[4] = test system: PD-L1; design: method as in http://en.atagenix.com/product_detail-23647.html, 30; conditions: indirect ELISA; ref http://en.atagenix.com/product_detail-23647.html, 30; read-out: published EC50, indirect ELISA; cited from earlier work

T1 sequence (Q9NZQ7 19-290): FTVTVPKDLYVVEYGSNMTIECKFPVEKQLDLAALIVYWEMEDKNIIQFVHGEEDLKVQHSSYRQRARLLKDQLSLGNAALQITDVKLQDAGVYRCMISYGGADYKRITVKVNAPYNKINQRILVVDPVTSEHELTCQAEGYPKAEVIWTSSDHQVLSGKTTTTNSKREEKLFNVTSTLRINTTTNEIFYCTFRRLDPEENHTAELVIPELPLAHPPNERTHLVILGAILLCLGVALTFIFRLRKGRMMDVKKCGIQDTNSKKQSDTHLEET

EC50 [1] [pM]	overall expression of CD69 compared with non-treated samples [2]	% CD69 (percentage of CD69-expressing cells) [2] [%]	Substance	Kd [3] [pM]	EC50 [4] [pM]
300	substantial increase	33±4	atezolizumab: FDA-approved PD-L1-targeting monoclonal antibody		
			avelumab: FDA-approved PD-L1-targeting monoclonal antibody	40	
600	substantial increase	36±1	durvalumab: FDA-approved PD-L1-targeting monoclonal antibody		~320
